IntAct's records for PubMed 24899623

B1: Leukocyte immunoglobulin-like receptor subfamily B member 2 (Homo sapiens), Q8N423 (parent)
chain: MTPIVTVLICLGLSLGPRTRVQTGTIPKPTLWAEPDSVITQGSPVTLSCQGSLEAQEYRLYREKKSASWITRIRPELVKNGQFHIPSITWEHTGRYGCQYYSRARWSELSDPLVLVMTGAYPKPTLSAQPSPVVTSGGRVTLQCESQVAFGGFILCKEGEDEHPQCLNSQPHARGSSRAIFSVGPVSPNRRWSHRCYGYDLNSPYVWSSPSDLLELLVPGVSKKPSLSVQPGPVMAPGESLTLQCVSDVGYDRFVLYKEGERDLRQLPGRQPQAGLSQANFTLGPVSRSYGGQYRCYGAHNLSSECSAPSDPLDILITGQIRGTPFISVQPGPTVASGENVTLLCQSWRQFHTFLLTKAGAADAPLRLRSIHEYPKYQAEFPMSPVTSAHAGTYRCYGSLNSDPYLLSHPSEPLELVVSGPSMGSSPPPTGPISTPGPEDQPLTPTGSDPQSGLGRHLGVVIGILVAVVLLLLLLLLLFLILRHRRQGKHWTSTQRKADFQHPAGAVGPEPTDRGLQWRSSPAADAQEENLYAAVKDTQPEDGVEMDTRAAASEAPQDVTYAQLHSLTLRRKATEPPPSQEREPPAEPSIYATLAIH
B2: Leukocyte immunoglobulin-like receptor subfamily B member 2 (Homo sapiens), Q8N423 (parent)
chain: B1 chain
partner: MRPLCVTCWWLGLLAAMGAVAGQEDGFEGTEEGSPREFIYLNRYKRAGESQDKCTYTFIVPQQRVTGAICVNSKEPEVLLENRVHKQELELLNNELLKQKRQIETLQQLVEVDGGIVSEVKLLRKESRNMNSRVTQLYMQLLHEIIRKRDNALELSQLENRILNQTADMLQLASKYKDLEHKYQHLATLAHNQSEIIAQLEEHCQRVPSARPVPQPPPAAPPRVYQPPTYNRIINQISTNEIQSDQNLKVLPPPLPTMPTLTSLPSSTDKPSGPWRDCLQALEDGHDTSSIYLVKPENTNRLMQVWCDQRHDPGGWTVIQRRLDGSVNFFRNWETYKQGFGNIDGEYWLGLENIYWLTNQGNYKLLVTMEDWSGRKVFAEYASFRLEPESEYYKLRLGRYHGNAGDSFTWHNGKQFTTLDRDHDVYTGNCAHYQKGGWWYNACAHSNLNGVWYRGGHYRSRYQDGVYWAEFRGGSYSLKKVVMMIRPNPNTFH

Variants of: B1
Settings: with angl5_human ANGPTL5, Q86XS5
angl5_human ANGPTL5, Q86XS5, sequence (Q86XS5 whole entry): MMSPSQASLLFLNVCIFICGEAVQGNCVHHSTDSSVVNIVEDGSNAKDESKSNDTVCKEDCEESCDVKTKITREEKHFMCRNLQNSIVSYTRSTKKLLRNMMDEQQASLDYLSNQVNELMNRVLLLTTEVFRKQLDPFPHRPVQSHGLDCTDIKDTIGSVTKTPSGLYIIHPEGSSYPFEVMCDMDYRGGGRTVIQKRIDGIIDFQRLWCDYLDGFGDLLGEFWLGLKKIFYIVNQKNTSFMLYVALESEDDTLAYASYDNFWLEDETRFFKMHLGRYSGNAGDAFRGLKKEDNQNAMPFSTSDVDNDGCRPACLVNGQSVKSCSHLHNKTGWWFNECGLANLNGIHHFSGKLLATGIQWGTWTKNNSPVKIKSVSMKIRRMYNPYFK

| effect of a mutation on the interaction | Variant |
| --- | --- |
| disrupting interaction strength | Y96A;G392D |
| decreasing interaction strength | R95E |
| decreasing interaction strength | T393E |
| with no effect | G97R |
| decreasing interaction strength | Y96A |
| decreasing interaction strength | T93A |
| decreasing interaction strength | Y100G |
| decreasing interaction strength | R59A;Y61A;W90A;D200A;N202A;Y205A |
| decreasing interaction strength | W90A;D200A;N202A;Y205A |
| disrupting interaction strength | Y96A;T393E |
| with no effect | R59A;Y61A |
| decreasing interaction strength | H92S |
| disrupting interaction strength | G94D |
| decreasing interaction strength | G392D |
| disrupting interaction strength | Y96A;Y394A |
| decreasing interaction strength | Q99R |
| decreasing interaction strength | Y394A |

Variants of: B2
Settings: with angl2_human ANGPTL2, Q9UKU9

| effect of a mutation on the interaction | Variant |
| --- | --- |
| decreasing interaction strength | R59A;Y61A |
| with no effect | T393E |
| disrupting interaction strength | Y96A;Y394A |
| decreasing interaction strength | Y96A;T393E |
| decreasing interaction strength | R59A;Y61A;W90A;D200A;N202A;Y205A |
| decreasing interaction strength | R95E |
| with no effect | G97R |
| with no effect | Q99R |
| increasing interaction strength | T93A |
| decreasing interaction strength | Y394A |
| disrupting interaction strength | Y96A;G392D |
| decreasing interaction strength | G94D |
| decreasing interaction strength | Y100G |
| with no effect | H92S |
| with no effect | G392D |
| decreasing interaction strength | H92S;T93A;G94D;R95E;Y96A;G97R;Q99R;Y100G |
| decreasing interaction strength | Y96A |
| with no effect | W90A;D200A;N202A;Y205A |
